± gives the uncertainty stated by the source.
Assay: protein stability index of a GFP-peptide fusion (yeast GPS) (PSI 1-4); higher = more stable; sorted into four equal gates, so the index is relative within each strain
Method in brief: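 Each library plasmid carries Cherry plus GFP with a tiled 17-residue yeast protein peptide fused downstream, and the pooled library was carried in yeast. Mid-log cultures in leucine-free medium were sorted into four equal gates by GFP/Cherry ratio. Reads from Illumina sequencing of PCR-amplified plasmids from each gate were assigned to strains by barcodes. Per peptide, the protein stability index was computed as the summed products of gate read frequency and gate number.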

| Sequence | protein stability index (doa10∆) | protein stability index (pdr5∆) | protein stability index (san1∆) | protein stability index (ubr1∆) |
| --- | --- | --- | --- | --- |
| DPSQNRLTGSLLAHKVA [RPC37] | 2 ± 0.05 | 2.15 ± 0.06 | 1.69 ± 0.095 | 2.31 ± 0.038 |
| LGVVFGRGGSGWKPYYK [YML031W/NDC1] | – | – | 3.4 ± 0.12 | – |
| KWPEYVRVQRQKKILSI [RPL8A] | 1.2 ± 0.06 | 1.5 ± 0.055 | 1.15 ± 0.098 | 1.23 ± 0.038 |
| TSKTVSNQFKRSLATAV [COR1] | 2.47 ± 0.11 | 2.32 ± 0.075 | 2.34 ± 0.092 | 1.8 ± 0.056 |
| ELEMIGGTNEDDFTDAI [YCS4] | – | 3.2 ± 0.18 | 3.39 ± 0.069 | 3.7 ± 0.19 |
| SSLVRSCGEEEFFSTNW [REC8] | 3.49 ± 0.23 | 3.52 ± 0.18 | – | 3.18 ± 0.2 |
| AGLEITSDNLLTITKAA [RPP1B] | 2.42 ± 0.051 | 2.55 ± 0.048 | 2.78 ± 0.064 | 2.65 ± 0.046 |
| DSDMLTKSHNTVQSWLC [NUT1] | 2.53 ± 0.18 | 2.63 ± 0.22 | – | 2.87 ± 0.078 |
| MAFRKSNVYLSLVNSYI [COB] | 2 ± 0.049 | 2.08 ± 0.078 | 1.96 ± 0.079 | 2.36 ± 0.064 |
| LDALTRHIKSKHEDLSL [RPN4] | 2.54 ± 0.062 | 2.08 ± 0.068 | 1.57 ± 0.089 | 2.61 ± 0.059 |
| LAFKKNEMLLKRVTKVK [MTW1] | 1.77 ± 0.065 | 2.03 ± 0.052 | 2.31 ± 0.12 | 2.03 ± 0.035 |
| DIEAGDDDDNNESSSNT [DIS3] | 3.51 ± 0.26 | 3.4 ± 0.2 | 3.05 ± 0.11 | 2.79 ± 0.12 |
| CFKPMSLTSKRLISQSL [RIP1] | 2.64 ± 0.24 | 2.42 ± 0.16 | – | 2.1 ± 0.049 |
| SNLKISLVKYPELLDSL [SWI1] | 2.76 ± 0.074 | 2.69 ± 0.058 | 2.71 ± 0.074 | 2.96 ± 0.056 |
| DTCAVSFDAVSDSIELL [YJR042W/NUP85] | 3.04 ± 0.12 | 3.46 ± 0.1 | 2.51 ± 0.25 | 2.65 ± 0.15 |
| TRVEGSGGGDSEVQRTM [RPT6] | 2.73 ± 0.098 | 2.65 ± 0.13 | 2.98 ± 0.087 | 3.19 ± 0.051 |
| RRILPKPSRTSRQVQKR [RPS7A] | – | 3.44 ± 0.15 | 2.74 ± 0.1 | 3.35 ± 0.14 |
| NASGNKRSGVIETVDDK [ITC1] | 2.55 ± 0.09 | 2.58 ± 0.097 | 2.27 ± 0.12 | 2.45 ± 0.052 |
| DTIMENPEPNKKNIQKA [IRR1] | 2.36 ± 0.25 | 2.84 ± 0.13 | 3.18 ± 0.2 | 2.99 ± 0.11 |
| NGEEDEVALFSQKAKLM [YLR335W/NUP2] | 1.16 ± 0.17 | 1.16 ± 0.13 | – | 1.17 ± 0.094 |
| PSSQSQNDTPMFKLGNF [YLR018C/POM34] | 2.54 ± 0.044 | 2.8 ± 0.046 | 2.79 ± 0.036 | 2.6 ± 0.028 |
| LTKYIRSKNLIFNGETL [GRR1] | 2.52 ± 0.086 | 2.43 ± 0.06 | 1.92 ± 0.078 | 1.91 ± 0.06 |
| HIPRLIPKQLLDDEKIF [YJL039C/NUP192] | 1.44 ± 0.18 | 1.54 ± 0.088 | 1.87 ± 0.19 | 1.31 ± 0.08 |
| MAESHRLYVKGKHLSYQ [RPL33A] | 2.71 ± 0.077 | 2.84 ± 0.068 | 2.52 ± 0.073 | 2.62 ± 0.058 |
| EIFHLLQPLEEGLIIDT [SIN4] | 1.99 ± 0.2 | 2.13 ± 0.11 | 2.21 ± 0.22 | 1.97 ± 0.093 |
| KYREGQVLFQGLIYSFN [POP1] | 2.46 ± 0.12 | 2.11 ± 0.081 | 2.46 ± 0.065 | 2.42 ± 0.11 |
| SLIKETNQLVLLQKMLN [YML103C/NUP188] | – | 1.29 ± 0.094 | 1.06 ± 0.096 | 1.02 ± 0.077 |

| Sequence | protein stability index (doa10∆) | protein stability index (pdr5∆) | protein stability index (san1∆) | protein stability index (ubr1∆) |
| --- | --- | --- | --- | --- |
| DLIETSFTCFAQFVSNK [NUT1] | 2.64 ± 0.093 | 2.01 ± 0.075 | 1.92 ± 0.11 | 2.77 ± 0.076 |
| INNNINIPQQQQMQPPN [GAL11] | 2.58 ± 0.07 | 2.87 ± 0.073 | 2.83 ± 0.049 | 2.84 ± 0.056 |
| SVTVSQGNYVTEDIREG [YMR129W/POM152] | 2.82 ± 0.061 | 2.91 ± 0.064 | 2.87 ± 0.061 | 2.85 ± 0.05 |
| KLQENRTLLTEEIEPKL [SMC2] | 2.91 ± 0.2 | 3.29 ± 0.18 | 2.76 ± 0.15 | 3.19 ± 0.14 |
| YDSDSDSSVEDSTDNEN [LIN1] | 3.08 ± 0.071 | 2.95 ± 0.1 | 2.91 ± 0.12 | 3.1 ± 0.042 |
| NQINSFWSLHSSTYYNL [NUT1] | 2.34 ± 0.064 | 1.75 ± 0.049 | 1.72 ± 0.073 | 1.57 ± 0.036 |
| NLTYYNEKLECISLGST [ITC1] | 2.2 ± 0.061 | 2.39 ± 0.044 | 2.32 ± 0.044 | 2.45 ± 0.04 |
| KQDEKKSSELELQKLVH [SMC2] | 3.23 ± 0.13 | 3.5 ± 0.097 | 3.4 ± 0.071 | 3.35 ± 0.051 |
| NDLRVSLNEKNALHTER [SMC1] | 3.11 ± 0.11 | 3.24 ± 0.096 | 2.67 ± 0.11 | 2.81 ± 0.089 |
| VKRYRLAPTQLSAEYLV [SIN4] | 2.44 ± 0.062 | 2.23 ± 0.056 | 2.3 ± 0.067 | 2.71 ± 0.043 |
| EMIRGRSPEEIRRTFNI [SKP1] | – | – | – | 2.34 ± 0.28 |
| KILQKRSISKELIVSEE [SIR3] | 2.37 ± 0.064 | 2.52 ± 0.075 | 2.28 ± 0.066 | 2.37 ± 0.052 |
| KIINKPNELSQILTVDP [RPC82] | 3.13 ± 0.28 | 2.56 ± 0.13 | 3.01 ± 0.075 | 2.78 ± 0.09 |
| ESYKPSVQLPDMAKLKK [SWI3] | 2.94 ± 0.081 | 2.9 ± 0.081 | 2.81 ± 0.06 | 2.79 ± 0.068 |
| GIRAPKGALMYGPPGTG [RPT5] | 2.86 ± 0.14 | – | – | 1.32 ± 0.11 |
| GAQFSRSYDLTRHQNTI [RPN4] | 1.16 ± 0.12 | 1.67 ± 0.11 | 1.85 ± 0.18 | 2.53 ± 0.099 |
| IITQYVFESLEINNLIQ [ARP9] | 3.2 ± 0.098 | 2.93 ± 0.081 | 2.8 ± 0.12 | 2.96 ± 0.1 |
| LGVEDITLIDSASLHLN [RET1] | 2.03 ± 0.063 | 1.61 ± 0.043 | 1.8 ± 0.1 | 1.8 ± 0.046 |
| FIAVGQILPESQWNDSS [SIR3] | 2.27 ± 0.16 | 3.08 ± 0.14 | 2.61 ± 0.24 | 2.71 ± 0.097 |
| GLAPDARVLSNYLRQQC [PRE5] | 2.72 ± 0.19 | 2.11 ± 0.21 | – | 1.47 ± 0.28 |
| VEKGTPLGKILLKGDNI [SME1] | 3.58 ± 0.088 | 3.43 ± 0.093 | 3.38 ± 0.14 | 3.59 ± 0.078 |
| RFQKCFPPGVIGIDEGS [RPC40] | 2.15 ± 0.11 | 2.15 ± 0.22 | – | 2.43 ± 0.18 |
| EIESIDKLPQFVDENTF [RPN1] | 3.08 ± 0.13 | 3.4 ± 0.22 | 3.09 ± 0.085 | 3.32 ± 0.1 |
| NKVSYYGNPTSKESWRY [RTT102] | 3.23 ± 0.11 | 3.19 ± 0.13 | 2.84 ± 0.17 | 3.42 ± 0.098 |
| LNAINNAEKTGKRQVLL [RPS22B] | 3.35 ± 0.066 | 3.24 ± 0.078 | 3.26 ± 0.072 | 3.17 ± 0.05 |
| DENGTNSAIANEQEEKS [RPC37] | 2.65 ± 0.083 | 2.83 ± 0.1 | 2.74 ± 0.047 | 3.07 ± 0.051 |
